Target: the molecule itself
Assay: self-association; SDS-PAGE under reducing (Mr 26,900) versus non-reducing (Mr 114,000) conditions

B1: Rtms-5 colored protein tagged with hexahistidine at its C-terminus (other)
chain: SVIATQMTYKVYMSGTVNGHYFEVEGDGKGKPYEGEQTVKLTVTKGGPLPFAWDILSPQCQYGSIPFTKYPEDIPDYVKQSFPEGFTWERIMNFEDGAVCTVSNDSSIQGNCFTYHVKFSGLNFPPNGPVMQKKTQGWEPHSERLFARGGMLIGNNFMALKLEGGGHYLCEFKTTYKAKKPVKMPGYHYVDRKLDVTNHNKDYTSVEQCEISIARKPVVAHHHHHH
notes: also called RTms-5.pep; Rtms5.pep
binding result: binds
